In patent US20240327544A1 (BIONTECH, published 2024):
Where “and” joins values, the source holds several entries; their conditions need not be identical. Equal entries are not always repeated.

Columns and labels:
[1] = target: T1, C1q (complement protein C1q from human serum) (human, UniProt P02745 23-245; P02746 28-253; P02747 29-245); experiment: flow cytometry, activated human CD8+ T cells, FITC anti-C1q
T1 construct: Human serum (20%) was the source of C1q

[2] = target: human PD-1, full-length, expressed on cells (human, UniProt Q15116 25-288); experiment: cell-based or functional assay
Chain of human PD-1, full-length, expressed on cells (Q15116 25-288 limits assumed): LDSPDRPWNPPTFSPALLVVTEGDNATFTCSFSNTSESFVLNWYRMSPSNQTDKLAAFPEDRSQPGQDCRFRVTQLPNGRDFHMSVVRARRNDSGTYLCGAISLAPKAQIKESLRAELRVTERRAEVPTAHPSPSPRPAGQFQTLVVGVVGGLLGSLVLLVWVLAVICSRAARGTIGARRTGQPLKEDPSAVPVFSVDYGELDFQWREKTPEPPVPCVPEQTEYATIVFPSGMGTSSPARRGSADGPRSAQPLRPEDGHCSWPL

T1 sequence (P02745 23-245 limits assumed, chain 1 of 3): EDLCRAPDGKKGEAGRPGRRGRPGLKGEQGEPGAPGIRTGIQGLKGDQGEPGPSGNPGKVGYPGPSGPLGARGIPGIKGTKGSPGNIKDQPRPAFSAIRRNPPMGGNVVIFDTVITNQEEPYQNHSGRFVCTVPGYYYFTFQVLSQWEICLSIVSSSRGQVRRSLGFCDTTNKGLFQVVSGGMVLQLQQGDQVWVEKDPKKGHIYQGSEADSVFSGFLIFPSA
T1 sequence (P02746 28-253 limits assumed, chain 2 of 3): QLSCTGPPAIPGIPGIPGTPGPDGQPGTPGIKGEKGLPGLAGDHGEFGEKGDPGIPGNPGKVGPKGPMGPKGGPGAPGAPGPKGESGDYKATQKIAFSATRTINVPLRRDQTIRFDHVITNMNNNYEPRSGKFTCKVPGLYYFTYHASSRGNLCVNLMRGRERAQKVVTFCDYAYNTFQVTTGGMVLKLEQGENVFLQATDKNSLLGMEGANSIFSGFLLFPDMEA
T1 sequence (P02747 29-245 limits assumed, chain 3 of 3): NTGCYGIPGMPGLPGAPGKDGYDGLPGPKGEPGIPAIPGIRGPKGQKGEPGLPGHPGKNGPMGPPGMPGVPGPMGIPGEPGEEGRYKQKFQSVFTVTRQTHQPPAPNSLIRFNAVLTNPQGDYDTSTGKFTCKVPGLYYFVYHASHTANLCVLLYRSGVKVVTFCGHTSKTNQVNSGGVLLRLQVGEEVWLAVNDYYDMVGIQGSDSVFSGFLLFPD

EC50 of PD-1/PD-L1 checkpoint blockade (luminescence, PD-1/PD-L1 blockade reporter assay) [2]: 0.165 µg/mL and 1.12 nM
B1: IgG1-PD1 (antibody)
heavy: QVQLVESGGGLVQPGTSLRLSCSVSGFSLYSYNMGWVRQAPGKGLEYIGIISGGTIGHYASWAKGRFTISRDTSKTTLYLQMNSLTTEDTATYFCARAFYDDYDYNVWGPGTLVTVSSASTKGPSVFPLAPSSKSTSGGTAALGCLVKDYFPEPVTVSWNSGALTSGVHTFPAVLQSSGLYSLSSVVTVPSSSLGTQTYICNVNHKPSNTKVDKRVEPKSCDKTHTCPPCPAPEFERGPSVFLFPPKPKDTLMISRTPEVTCVVVDVSHEDPEVKFNWYVDGVEVHNAKTKPREEQYNSTYRVVSVLTVLHQDWLNGKEYKCKVSNKALPAPIEKTISKAKGQPREPQVYTLPPSREEMTKNQVSLTCLVKGFYPSDIAVEWESNGQPENNYKTTPPVLDSDGSFFLYSKLTVDKSRWQQGNVFSCSVMHEALHNHYTQKSLSLSPG
light: AIQLTQSPSSLSASVGGTVTITCQSSQSVYGNNQLSWYQQKPGQPPKLLIYQASKLETGVPSRFRGSGSGTQFTLTISSLQSEDFATYYCAGGYSSSSDTTFGGGTEVVVKRTVAAPSVFIFPPSDEQLKSGTASVVCLLNNFYPREAKVQWKVDNALQSGNSQESVTEQDSKDSTYSLSSTLTLSKADYEKHKVYACEVTHQGLSSPVTKSFNRGEC
notes: Humanized rabbit anti-PD-1 antibody, Fc-inert IgG1 kappa; also called MAB-19-0618 variable regions in a human IgG1m(f) L234F/L235E/G236R (FER) backbone
binding result [1]: no binding (tested: antibody up to 30 µg/mL, 20% human serum)
